Source: US20030219825A1

Target: melanocortin-1 receptor (MC1R) (human) (UniProt Q01726)
Test: cell-based or functional assay
Conditions: scale: response value

Chain of UniProt Q01726 (Q01726 whole entry): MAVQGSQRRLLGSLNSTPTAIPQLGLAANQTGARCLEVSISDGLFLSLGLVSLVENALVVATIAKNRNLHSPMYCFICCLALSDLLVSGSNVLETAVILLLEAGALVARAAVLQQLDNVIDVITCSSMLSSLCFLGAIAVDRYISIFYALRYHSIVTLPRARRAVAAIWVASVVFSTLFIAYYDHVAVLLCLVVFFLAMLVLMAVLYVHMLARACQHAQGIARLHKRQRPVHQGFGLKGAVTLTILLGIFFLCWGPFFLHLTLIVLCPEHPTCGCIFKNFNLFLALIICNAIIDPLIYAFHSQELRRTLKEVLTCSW

maximal response value (z value minus background z value, luminescence, 6xCRE-luciferase reporter lawn): 25
Substance: 4-L-norleucine-7-D-phenylalanine-alpha melanocyte stimulating hormone (from UniProt P01189 138-150) (peptide)
